T1: PTPN13_1, Q12923
T1 sequence (Q12923 1088-1188, limits assumed, looked up): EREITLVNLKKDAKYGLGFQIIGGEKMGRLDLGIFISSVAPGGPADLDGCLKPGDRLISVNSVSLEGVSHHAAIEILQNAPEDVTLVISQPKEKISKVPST

T2: FRMPD1, Q5SYB0
T2 sequence (Q5SYB0 52-145, limits assumed, looked up): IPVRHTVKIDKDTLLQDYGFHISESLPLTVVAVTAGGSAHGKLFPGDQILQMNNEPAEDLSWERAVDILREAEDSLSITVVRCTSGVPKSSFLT

T3: HTRA3, P83110
T3 sequence (P83110 354-453, limits assumed, looked up): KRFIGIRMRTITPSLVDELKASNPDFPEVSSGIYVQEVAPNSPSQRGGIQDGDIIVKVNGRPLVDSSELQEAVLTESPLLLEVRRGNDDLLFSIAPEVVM

T4: TJP3_3, O95049
T4 sequence (O95049 375-456, limits assumed, looked up): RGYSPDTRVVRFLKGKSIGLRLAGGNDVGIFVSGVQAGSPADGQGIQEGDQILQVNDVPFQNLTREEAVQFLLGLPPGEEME

T5: DVL3, Q92997
T5 sequence (Q92997 244-331, limits assumed, looked up): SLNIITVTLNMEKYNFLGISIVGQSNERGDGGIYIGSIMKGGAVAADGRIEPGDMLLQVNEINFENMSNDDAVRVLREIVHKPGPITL

T6: APBA3_1, O96018
T6 sequence (O96018 389-490, limits assumed, looked up): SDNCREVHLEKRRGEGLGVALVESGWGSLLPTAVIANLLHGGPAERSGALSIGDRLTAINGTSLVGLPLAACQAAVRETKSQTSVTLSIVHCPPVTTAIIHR

T7: SNTA1, Q13424
T7 sequence (Q13424 82-180, limits assumed, looked up): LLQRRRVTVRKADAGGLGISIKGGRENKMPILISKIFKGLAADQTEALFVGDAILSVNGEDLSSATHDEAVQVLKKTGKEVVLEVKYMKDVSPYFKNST

T8: SNTG2, Q9NY99
T8 sequence (Q9NY99 68-166, limits assumed, looked up): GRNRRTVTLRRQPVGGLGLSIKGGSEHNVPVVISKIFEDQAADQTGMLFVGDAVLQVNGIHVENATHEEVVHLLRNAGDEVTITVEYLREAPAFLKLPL

T9: LIN7C, Q9NUP9
T9 sequence (Q9NUP9 88-185, limits assumed, looked up): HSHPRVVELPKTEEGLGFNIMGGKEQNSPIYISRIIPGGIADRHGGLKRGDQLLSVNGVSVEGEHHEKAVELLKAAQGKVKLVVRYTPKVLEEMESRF

T10: TX1BP3, O14907
T10 sequence (O14907 10-122, limits assumed, looked up): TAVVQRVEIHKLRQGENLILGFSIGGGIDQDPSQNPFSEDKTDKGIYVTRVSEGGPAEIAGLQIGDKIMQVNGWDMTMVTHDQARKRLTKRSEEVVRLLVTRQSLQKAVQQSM

T11: RHPN1, Q8TCX5
T11 sequence (Q8TCX5 508-602, limits assumed, looked up): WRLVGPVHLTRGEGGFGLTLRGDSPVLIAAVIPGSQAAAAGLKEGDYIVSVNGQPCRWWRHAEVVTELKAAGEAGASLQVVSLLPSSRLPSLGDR

T12: PDZD7_3, Q9H5P4
T12 sequence (Q9H5P4 857-944, limits assumed, looked up): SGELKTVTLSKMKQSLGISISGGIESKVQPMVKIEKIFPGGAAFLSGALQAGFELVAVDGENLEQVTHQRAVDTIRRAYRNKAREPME


Key:
Assay in all cases: holdup assay
Parameters in all cases: key: below the threshold = too weak to quantify, mostly under pKd 3.1 to 4
Conditions in all cases: plain residues with an end cap or a label only (N-terminal biotin on a linker: ado-ado)
[1] = molecular target: T1, PTPN13_1, Q12923
[2] = molecular target: T2, FRMPD1, Q5SYB0
[3] = molecular target: GORASP1, Q9BQQ3
Sequence of GORASP1, Q9BQQ3 (Q9BQQ3 1-208): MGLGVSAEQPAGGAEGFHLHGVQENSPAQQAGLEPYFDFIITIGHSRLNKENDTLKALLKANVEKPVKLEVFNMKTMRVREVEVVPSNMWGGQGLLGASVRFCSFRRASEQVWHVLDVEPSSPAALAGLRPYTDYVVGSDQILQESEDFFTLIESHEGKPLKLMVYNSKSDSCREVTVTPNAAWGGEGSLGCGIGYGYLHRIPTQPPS

[4] = molecular target: Inadl_5, Q8NI35
Sequence of Inadl_5, Q8NI35 (Q8NI35 673-780): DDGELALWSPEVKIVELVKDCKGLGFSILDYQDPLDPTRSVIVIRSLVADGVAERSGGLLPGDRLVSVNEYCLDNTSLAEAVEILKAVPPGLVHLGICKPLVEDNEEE

[5] = molecular target: T3, HTRA3, P83110
[6] = molecular target: T4, TJP3_3, O95049
[7] = molecular target: ARHGEF12, Q9NZN5-2
Sequence of ARHGEF12, Q9NZN5-2 (Q9NZN5 other isoform, or with tags, fused parts or gaps): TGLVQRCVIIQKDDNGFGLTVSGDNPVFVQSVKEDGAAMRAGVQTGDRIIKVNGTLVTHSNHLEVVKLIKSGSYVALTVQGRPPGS

[8] = molecular target: T5, DVL3, Q92997
[9] = molecular target: T6, APBA3_1, O96018
[10] = molecular target: FRMPD2_1, Q68DX3
Sequence of FRMPD2_1, Q68DX3 (Q68DX3 770-861): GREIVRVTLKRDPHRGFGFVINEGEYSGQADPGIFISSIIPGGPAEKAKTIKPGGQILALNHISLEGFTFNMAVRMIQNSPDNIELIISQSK

[11] = molecular target: PDZRN4_1, Q6ZMN7
Sequence of PDZRN4_1, Q6ZMN7 (Q6ZMN7 213-318): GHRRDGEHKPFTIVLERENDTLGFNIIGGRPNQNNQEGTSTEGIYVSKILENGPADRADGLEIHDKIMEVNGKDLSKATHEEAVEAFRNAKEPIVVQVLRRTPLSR

[12] = molecular target: FRMPD3, Q5JV73
Sequence of FRMPD3, Q5JV73 (Q5JV73 12-100): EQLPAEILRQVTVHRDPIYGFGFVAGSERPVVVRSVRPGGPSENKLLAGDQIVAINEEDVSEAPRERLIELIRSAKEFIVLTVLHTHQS

[13] = molecular target: T7, SNTA1, Q13424
[14] = molecular target: Inadl_4, Q8NI35
Sequence of Inadl_4, Q8NI35 (Q8NI35 547-651): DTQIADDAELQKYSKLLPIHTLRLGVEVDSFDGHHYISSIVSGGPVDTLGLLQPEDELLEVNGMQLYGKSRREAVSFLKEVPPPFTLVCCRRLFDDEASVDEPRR

[15] = molecular target: DLG2_3, Q15700
[16] = molecular target: MAGI2_4, Q86UL8
Sequence of MAGI2_4, Q86UL8 (Q86UL8 772-865): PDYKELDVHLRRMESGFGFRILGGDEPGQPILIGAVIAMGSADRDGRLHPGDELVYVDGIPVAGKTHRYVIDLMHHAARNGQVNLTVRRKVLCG

[17] = molecular target: T8, SNTG2, Q9NY99
[18] = molecular target: FRMPD2_2, Q68DX3
Sequence of FRMPD2_2, Q68DX3 (Q68DX3 944-1038): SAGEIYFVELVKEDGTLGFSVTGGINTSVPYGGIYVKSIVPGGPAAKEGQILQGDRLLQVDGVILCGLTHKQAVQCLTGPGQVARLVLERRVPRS

[19] = molecular target: T9, LIN7C, Q9NUP9
[20] = molecular target: PTPN3, P26045
Sequence of PTPN3, P26045 (P26045 505-587): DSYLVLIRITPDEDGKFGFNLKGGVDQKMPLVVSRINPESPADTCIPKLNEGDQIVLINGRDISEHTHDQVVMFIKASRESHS

[21] = molecular target: T10, TX1BP3, O14907
[22] = molecular target: GRIP2_3, Q9C0E4
Sequence of GRIP2_3, Q9C0E4 (Q9C0E4 238-339): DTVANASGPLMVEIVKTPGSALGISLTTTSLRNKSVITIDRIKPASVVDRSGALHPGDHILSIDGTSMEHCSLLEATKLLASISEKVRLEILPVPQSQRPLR

[23] = molecular target: MAST1, Q9Y2H9
Sequence of MAST1, Q9Y2H9 (Q9Y2H9 962-1065): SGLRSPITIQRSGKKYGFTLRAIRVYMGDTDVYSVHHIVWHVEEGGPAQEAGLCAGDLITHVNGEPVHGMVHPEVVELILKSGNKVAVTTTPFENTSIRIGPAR

[24] = molecular target: T11, RHPN1, Q8TCX5
[25] = molecular target: T12, PDZD7_3, Q9H5P4

pKd [1]	pKd [2]	pKd [3]	pKd [4]	pKd [5]	pKd [6]	pKd [7]	pKd [8]	pKd [9]	pKd [10]	pKd [11]	pKd [12]	pKd [13]	pKd [14]	pKd [15]	pKd [16]	pKd [17]	pKd [18]	pKd [19]	pKd [20]	Binder	also measured
below the threshold	below the threshold	below the threshold	below the threshold	below the threshold	below the threshold	below the threshold	below the threshold	below the threshold	below the threshold	below the threshold	below the threshold	below the threshold	below the threshold	below the threshold	below the threshold	below the threshold	below the threshold	4.07	4.13	RALRASESGI [ADGRE5, P48960]	pKd [21]: below the threshold; pKd [22]: below the threshold; pKd [23]: below the threshold; pKd [24]: below the threshold; pKd [25]: below the threshold
below the threshold	below the threshold	below the threshold	below the threshold	below the threshold	below the threshold	below the threshold	below the threshold	below the threshold	below the threshold	below the threshold	below the threshold	below the threshold	below the threshold	below the threshold	below the threshold	below the threshold	below the threshold	4.07	below the threshold	LETREPTNTL [GRIP1, Q9Y3R0]	pKd [21]: below the threshold; pKd [22]: below the threshold; pKd [23]: below the threshold; pKd [24]: below the threshold; pKd [25]: below the threshold
below the threshold	below the threshold	3.61	below the threshold	below the threshold	below the threshold	below the threshold	3.6	below the threshold	below the threshold	below the threshold	below the threshold	below the threshold	below the threshold	3.52	3.53	below the threshold	below the threshold	below the threshold	4.07	TMQMSLKDLL [GLA, P06280]	pKd [21]: below the threshold; pKd [22]: below the threshold; pKd [23]: 4.03; pKd [24]: 3.79; pKd [25]: below the threshold
